{"source": "patent US10245299B2", "about": "“Autoassembling peptides for the treatment of pulmonary bulla” (3-D MATRIX, LTD., priority 2014, dated 2019)", "format_in_all_cases": "physicochemical", "key": {"[1]": {"experiment": "Rheological properties of pH adjusted peptide solutions and hydrogels", "conditions": "KLD12 1%, IEIK13 1%, PuraMatrix® 1% and 2.5%", "experimental": "Based on the visual observation of the effect of pH level on the properties of the peptide solutions, the effect on the rheological properties of the peptide solutions after adjusting their pH level to 3.4 (PuraMatrix® and KLD12) or 3.7 (IEIK13) was evaluated. If the pH levels of peptide solutions are higher than 3.5 (PuraMatrix® and KLD12) or 3.7 (IEIK13), the peptide solution began phase separation becoming cloudy. The rheological properties of PuraMatrix®, KLD12 and IEIK13 solutions were higher at pH 3.4. The results are shown in FIG. 2 for KLD12 1%, FIG. 3 for IEIK13 1%, and FIGS. 4-5 for PuraMatrix® 1% and 2.5%, respectively. Stress sweep tests were performed at 10 rad/s. Frequency sweep tests were performed at 1 Pa.\nBased on the results of the effect on the rheological properties of the peptide solutions after adjusting their pH level to 3.4 (PuraMatrix® and KLD12) or 3.7 (IEIK13), the effect on the rheological properties of the peptide solutions at various pH levels was evaluated. […] The rheological properties of peptides were evaluated at various concentrations using a rheometer (DHR-1, TA Instruments) with 20 mm plates. The results are shown in FIG. 6A for PuraMatrix® 2.5% solution and FIG. 6B for IEIK13 1.5% solution, respectively. Frequency sweep tests were performed from 1 rad/sec to 10 rad/sec at 1 Pa and the storage modulus at 1 rad/sec was selected for data.\nBased on the results of the effect on the rheological properties of the peptide solutions after adjusting their pH level, the effect on the rheological properties of the peptide hydrogels at various pH after DMEM treatment was evaluated and compared to the effect on the rheological properties of the peptide solutions at various pH before DMEM treatment. […] The results are shown in FIGS. 7A-7B for PuraMatrix® and FIGS. 8A-8B for IEIK (SEQ ID NO: 5), respectively. Frequency sweep tests were performed from 1 rad/sec to 10 rad/sec at 1 Pa and the storage modulus at 1 rad/sec was selected for data."}, "[2]": {"experiment": "pH and appearance of 2.5% peptide solutions after adding 0.1 N NaOH", "experimental": "To adjust the pH level of the peptide solutions by way of example, 0.1 N NaOH was added to 2 mL of 2.5% peptide solutions and their pH and appearance were measured."}, "[3]": {"experiment": "Gelation of peptide solutions after saline buffer treatment, time sweep", "conditions": "saline buffer (0.15 M of NaCl); IEIK13 1.5%, KLD12 1.5%, PuraMatrix® 2.5% solution", "experimental": "The effect of salt ionic strength level surrounding peptide solution on the properties of peptide solutions was evaluated to identify the possibility of peptide gelation when the peptide solution is placed into the environment where salt ionic strength level is high. […] Without pH effect, the effect of saline treatment on gelation of peptide solutions were evaluated. […] This is because IEIK13 is much more sensitive to salt ionic strength levels. Fast gelation of IEIK13 at the salt ionic strength level similar to body fluid isotonic salt level may generally improve its function and gelation speed for various clinical applications. The results are shown in FIG. 19 for IEIK13, KLD12 and PuraMatrix® solutions. Time sweep tests were performed at 1 rad/sec and at 1 Pa with 20 mm plates and 500 μm gap distance. […]"}, "[4]": {"experiment": "Appearance of 1.5% peptide solutions with various salts at room temperature", "conditions": "for Appearance: IEIK13 solution, room temperature", "experimental": "The effect of salt ionic strength level on the properties of peptide solutions was evaluated to identify optimized salt ionic strength levels for the peptides as described herein. Increasing the salt ionic strength level of PuraMatrix® and other peptides may generally improve its function and mechanical strength for various clinical applications. To adjust the salt ionic strength of the peptide solutions by way of example, various salt buffer solutions including NaCl, KCl, MgCl2, CaCl2 and DPBS (10×) were added to 2 mL of 1.5% peptide solutions."}}}
{"substance": "Ile-Glu-Ile-Lys-Ile-Glu-Ile-Lys-Ile-Glu-Ile-Lys-Ile [IEIK13]", "values": [{"measurement": "rheological properties of solutions at pH 3.4", "setting": "[1]", "result": "higher"}, {"measurement": "Appearance", "setting": "[2]; 0.1N NaOH 0 μL/mL, conc. 2.5%, pH 1.8", "result": "Clear, thick gel"}, {"measurement": "Appearance", "setting": "[2]; 0.1N NaOH 50 μL/mL, conc. 2.38%, pH 2.1", "result": "Clear, thick gel"}, {"measurement": "Appearance", "setting": "[2]; 0.1N NaOH 100 μL/mL, conc. 2.27%, pH 2.2", "result": "Clear, thick gel"}, {"measurement": "Appearance", "setting": "[2]; 0.1N NaOH 150 μL/mL, conc. 2.17%, pH 2.7", "result": "Clear, thick gel,"}, {"measurement": "Appearance", "setting": "[2]; 0.1N NaOH 200 μL/mL, conc. 2.08%, pH 3.0", "result": "Clear, thick gel,"}, {"measurement": "Appearance", "setting": "[2]; 0.1N NaOH 250 μL/mL, conc. 2.0%, pH 3.3", "result": "Clear, thick gel,"}, {"measurement": "Appearance", "setting": "[2]; 0.1N NaOH 275 μL/mL, conc. 1.96%, pH 3.7", "result": "Clear, thick,"}, {"measurement": "Appearance", "setting": "[2]; 0.1N NaOH 300 μL/mL, conc. 1.92%, pH 4.0", "result": "Slightly cloudy,"}, {"measurement": "Appearance", "setting": "[2]; 0.1N NaOH 350 μL/mL, conc. 1.85%, pH 4.5", "result": "Cloudy, brittle gel"}, {"measurement": "Appearance", "setting": "[2]; 0.1N NaOH 400 μL/mL, conc. 1.79%, pH 5.4", "result": "Cloudy, phase-"}, {"measurement": "Peptide solution pH", "setting": "[2]; 0.1N NaOH added in 2.5% solution 0 μL/mL, conc. 2.5%", "result": 1.8}, {"measurement": "Peptide solution pH", "setting": "[2]; 0.1N NaOH added in 2.5% solution 50 μL/mL, conc. 2.38%", "result": 2.1}, {"measurement": "Peptide solution pH", "setting": "[2]; 0.1N NaOH added in 2.5% solution 100 μL/mL, conc. 2.27%", "result": 2.2}, {"measurement": "Peptide solution pH", "setting": "[2]; 0.1N NaOH added in 2.5% solution 150 μL/mL, conc. 2.17%", "result": 2.7}, {"measurement": "Peptide solution pH", "setting": "[2]; 0.1N NaOH added in 2.5% solution 200 μL/mL, conc. 2.08%", "result": 3.0}, {"measurement": "Peptide solution pH", "setting": "[2]; 0.1N NaOH added in 2.5% solution 250 μL/mL, conc. 2.0%", "result": 3.3}, {"measurement": "Peptide solution pH", "setting": "[2]; 0.1N NaOH added in 2.5% solution 275 μL/mL, conc. 1.96%", "result": 3.7}, {"measurement": "Peptide solution pH", "setting": "[2]; 0.1N NaOH added in 2.5% solution 300 μL/mL, conc. 1.92%", "result": 4.0}, {"measurement": "Peptide solution pH", "setting": "[2]; 0.1N NaOH added in 2.5% solution 350 μL/mL, conc. 1.85%", "result": 4.5}, {"measurement": "Peptide solution pH", "setting": "[2]; 0.1N NaOH added in 2.5% solution 400 μL/mL, conc. 1.79%", "result": 5.4}, {"measurement": "Appearance", "setting": "[2]; pH 7.0", "result": "Cloudy, phase-"}, {"measurement": "gelation after saline buffer treatment", "setting": "[3]", "result": "fast gelation"}, {"measurement": "Appearance", "setting": "[4]; conc. 1.16%, KCl 0.045 M, ionic strength 0.045 M", "result": "Cloudy, phase-separated"}, {"measurement": "Appearance", "setting": "[4]; conc. 1.2%, KCl 0.04 M, ionic strength 0.04 M", "result": "Slightly cloudy, brittle"}, {"measurement": "Appearance", "setting": "[4]; conc. 1.2%, NaCl 0.04 M, ionic strength 0.04 M", "result": "Cloudy, phase-separated"}, {"measurement": "Appearance", "setting": "[4]; conc. 1.24%, KCl 0.035 M, ionic strength 0.035 M", "result": "Slightly cloudy, brittle gel"}, {"measurement": "Appearance", "setting": "[4]; conc. 1.24%, NaCl 0.035 M, ionic strength 0.035 M", "result": "Slightly cloudy, brittle gel"}, {"measurement": "Appearance", "setting": "[4]; conc. 1.27%, KCl 0.03 M, ionic strength 0.03 M", "result": "Clear, thick, stiffer gel"}, {"measurement": "Appearance", "setting": "[4]; conc. 1.27%, NaCl 0.03 M, ionic strength 0.03 M", "result": "Slightly cloudy, thick, stiffer gel"}, {"measurement": "Appearance", "setting": "[4]; conc. 1.31%, KCl 0.025 M, ionic strength 0.025 M", "result": "Clear, thick, stiffer gel"}, {"measurement": "Appearance", "setting": "[4]; conc. 1.31%, NaCl 0.025 M, ionic strength 0.025 M", "result": "Clear, thick, stiffer gel"}, {"measurement": "Appearance", "setting": "[4]; conc. 1.35%, KCl 0.02 M, ionic strength 0.02 M", "result": "Clear, thick, stiffer gel"}, {"measurement": "Appearance", "setting": "[4]; conc. 1.35%, NaCl 0.02 M, ionic strength 0.02 M", "result": "Clear, thick, stiffer gel"}, {"measurement": "Appearance", "setting": "[4]; conc. 1.36%, CaCl2 0.0183 M, ionic strength 0.055 M", "result": "Cloudy, phase-separated"}, {"measurement": "Appearance", "setting": "[4]; conc. 1.36%, MgCl2 0.0183 M, ionic strength 0.055 M", "result": "Cloudy, phase-separated"}, {"measurement": "Appearance", "setting": "[4]; conc. 1.37%, CaCl2 0.0167 M, ionic strength 0.05 M", "result": "Slightly cloudy, brittle gel"}, {"measurement": "Appearance", "setting": "[4]; conc. 1.37%, MgCl2 0.0167 M, ionic strength 0.05 M", "result": "Slightly cloudy, brittle gel"}, {"measurement": "Appearance", "setting": "[4]; conc. 1.39%, CaCl2 0.015 M, ionic strength 0.045 M", "result": "Slightly cloudy, thick, stiffer gel"}, {"measurement": "Appearance", "setting": "[4]; conc. 1.39%, KCl 0.015 M, ionic strength 0.015 M", "result": "Clear, thick, stiffer gel"}, {"measurement": "Appearance", "setting": "[4]; conc. 1.39%, MgCl2 0.015 M, ionic strength 0.045 M", "result": "Slightly cloudy, stiffer gel"}, {"measurement": "Appearance", "setting": "[4]; conc. 1.39%, NaCl 0.015 M, ionic strength 0.015 M", "result": "Clear, thick, stiffer gel"}, {"measurement": "Appearance", "setting": "[4]; conc. 1.40%, CaCl2 0.0133 M, ionic strength 0.04 M", "result": "Slightly cloudy, thick, stiffer gel"}, {"measurement": "Appearance", "setting": "[4]; conc. 1.40%, MgCl2 0.0133 M, ionic strength 0.04 M", "result": "Slightly cloudy, thick, stiffer gel"}, {"measurement": "Appearance", "setting": "[4]; conc. 1.41%, CaCl2 0.0117 M, ionic strength 0.035 M", "result": "Clear, thick, stiffer gel"}, {"measurement": "Appearance", "setting": "[4]; conc. 1.41%, MgCl2 0.0117 M, ionic strength 0.035 M", "result": "Clear, thick, stiffer gel"}, {"measurement": "Appearance", "setting": "[4]; conc. 1.43%, CaCl2 0.01 M, ionic strength 0.03 M", "result": "Clear, thick, stiffer gel"}, {"measurement": "Appearance", "setting": "[4]; conc. 1.43%, KCl 0.01 M, ionic strength 0.01 M", "result": "Clear, thick, stiffer gel"}, {"measurement": "Appearance", "setting": "[4]; conc. 1.43%, MgCl2 0.01 M, ionic strength 0.03 M", "result": "Clear, thick, stiffer gel"}, {"measurement": "Appearance", "setting": "[4]; conc. 1.43%, NaCl 0.01 M, ionic strength 0.01 M", "result": "Clear, thick, stiffer gel"}, {"measurement": "Appearance", "setting": "[4]; conc. 1.44%, CaCl2 0.0083 M, ionic strength 0.025 M", "result": "Clear, thick, stiffer gel"}, {"measurement": "Appearance", "setting": "[4]; conc. 1.44%, MgCl2 0.0083 M, ionic strength 0.025 M", "result": "Clear, thick, stiffer gel"}, {"measurement": "Appearance", "setting": "[4]; conc. 1.45%, CaCl2 0.0067 M, ionic strength 0.02 M", "result": "Clear, thick, stiffer gel"}, {"measurement": "Appearance", "setting": "[4]; conc. 1.45%, MgCl2 0.0067 M, ionic strength 0.02 M", "result": "Clear, thick, stiffer gel"}, {"measurement": "Appearance", "setting": "[4]; conc. 1.46%, CaCl2 0.005 M, ionic strength 0.015 M", "result": "Clear, thick, stiffer gel"}, {"measurement": "Appearance", "setting": "[4]; conc. 1.46%, KCl 0.005 M, ionic strength 0.005 M", "result": "Clear, thick, stiffer gel"}, {"measurement": "Appearance", "setting": "[4]; conc. 1.46%, MgCl2 0.005 M, ionic strength 0.015 M", "result": "Clear, thick, stiffer gel"}, {"measurement": "Appearance", "setting": "[4]; conc. 1.46%, NaCl 0.005 M, ionic strength 0.005 M", "result": "Clear, thick, stiffer gel"}, {"measurement": "Appearance", "setting": "[4]; conc. 1.5%, CaCl2 0 M, ionic strength 0 M", "result": "Clear, thick gel"}, {"measurement": "Appearance", "setting": "[4]; conc. 1.5%, KCl 0 M, ionic strength 0 M", "result": "Clear, thick gel"}, {"measurement": "Appearance", "setting": "[4]; conc. 1.5%, MgCl2 0 M, ionic strength 0 M", "result": "Clear, thick gel"}, {"measurement": "Appearance", "setting": "[4]; conc. 1.5%, NaCl 0 M, ionic strength 0 M", "result": "Clear, thick gel"}, {"measurement": "salt ionic strength increase that did not change the clear color of the solution (apparent stiffness increased)", "setting": "[4]; depending on different salts, 1.5% peptide solutions", "result": "0.025˜0.035 M"}]}
